Results as given in US20240115693A1 (CHILDREN S MEDICAL CENTER, published 2024).

Molecular target: T1, recombinant human ACE2 (hACE2-Fc, InvivoGen) (human, UniProt Q9BYF1 18-740)
T1 construct: not shown: Fc part of a bought reagent
Experiment: ELISA, LuS-Tag coated, hACE2-Fc titrated

T1 sequence (Q9BYF1 18-740): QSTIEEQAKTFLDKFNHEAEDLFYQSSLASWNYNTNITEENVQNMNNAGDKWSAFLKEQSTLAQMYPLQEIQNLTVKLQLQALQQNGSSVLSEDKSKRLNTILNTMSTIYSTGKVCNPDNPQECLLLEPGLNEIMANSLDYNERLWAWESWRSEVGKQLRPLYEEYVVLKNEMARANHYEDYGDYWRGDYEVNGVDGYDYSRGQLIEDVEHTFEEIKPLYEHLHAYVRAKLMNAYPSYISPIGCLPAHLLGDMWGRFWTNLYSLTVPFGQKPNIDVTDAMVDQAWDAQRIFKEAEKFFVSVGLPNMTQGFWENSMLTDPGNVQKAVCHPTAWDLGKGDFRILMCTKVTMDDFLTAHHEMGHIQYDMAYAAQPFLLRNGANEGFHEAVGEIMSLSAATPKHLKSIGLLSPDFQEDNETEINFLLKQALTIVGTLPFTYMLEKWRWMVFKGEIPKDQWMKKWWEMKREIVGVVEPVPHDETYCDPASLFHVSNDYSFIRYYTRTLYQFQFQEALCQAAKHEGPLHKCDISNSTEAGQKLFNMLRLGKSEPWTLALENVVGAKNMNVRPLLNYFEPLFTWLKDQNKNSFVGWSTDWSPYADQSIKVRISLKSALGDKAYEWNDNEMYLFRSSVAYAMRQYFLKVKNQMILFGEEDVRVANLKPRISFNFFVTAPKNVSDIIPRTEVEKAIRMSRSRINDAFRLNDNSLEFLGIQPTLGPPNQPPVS

B1: Lumazine synthase expressing SpyTag (LuS-Tag) (other)
chain: AHIVMVDAYKPTKMQIYEGKLTAEGLRFGIVASRFNHALVDRLVEGAIDCIVRHGGREEDITLVRVPGSWEIPVAAGELARKENIDAVIAIGVLIRGATPHFDYIASEVSKGLANLSLELRKPITFGVITADTLEQAIERAGTKHGNKGWEAALSAIEMANLFKSLR
binding result: no binding (tested: starting at 10 µg/ml)
